Patent US20140228277A1 (Genentech, published 2014)
Starred links: 1 amine or outer side, 2 acyl side, 3 side chain; linkers in the order of their positions; H or OH if unused. Positions of bridges follow the written chain, without caps; N, C: chain ends. NH(CH2)3(OCH2CH2)2O(CH2)3NH = C(CN[*:1])COCCOCCOCCCN[*:2]

Columns and labels:
Assay in all cases: ELISA; biotinylated BACE020 on plate-coated BACE1 ECD mutant; ratio to WT
[1] = target: T1, human BACE1 ECD (22-457) Q134A, His8 (human, UniProt P56817 22-457)
T1 construct: also called Q134A (73)
Description: (§1) Maxisorp microtiter plates (Nalge Nunc International, Rochester, N.Y.) were coated overnight at 4° C. with 2 μg/ml BACE1 mutant in 50 mM carbonate, pH 9.6. The coated wells were washed with buffer (PBS, 0.05% Polysorbate 20) and blocked with assay buffer (PBS, pH 7.4, 0.5% BSA, 0.05% Tween 20, 15 ppm Proclin) for 1 h at room temperature with gentle shaking. […] After washing, the amount of peptide bound to the plate was detected by the addition of Streptavidin-Horseradish Peroxidase Conjugate (GE Healthcare, Piscataway, N.J.) followed by the addition of TMB/H₂O₂ substrate (KPL, Gaithersburg, Md.). The reaction was quenched with 1 M phosphoric acid and the A₄₅₀ measured on a Molecular Devices SpectraMax Plus384 microplate reader. Concentrations to give half maximal effective concentration (EC₅₀) were determined using a 4-parameter non-linear regression curve-fitting program with Kaleidagraph (Synergy Software, Reading, Pa.). […] Concentrations to give half maximal inhibition concentration (IC₅₀) were determined using a 4-parameter non-linear regression curve-fitting program with Kaleidagraph.
(§2) The fold decrease in binding affinity was determined as the relative EC₅₀ values of EC₅₀ (mut)/EC₅₀ (WT), which are listed in Table 3.

[2] = target: T2, human BACE1 ECD (22-457) K168A, His8 (human, UniProt P56817 22-457)
T2 construct: also called K168A (107)
Description: as §1, §2

[3] = target: T3, human BACE1 ECD (22-457) F169A, His8 (human, UniProt P56817 22-457)
T3 construct: also called F169A (108)
Description: as §1, §2

[4] = target: T4, human BACE1 ECD (22-457) I179A, His8 (human, UniProt P56817 22-457)
T4 construct: also called I179A (118)
Description: as §1, §2

[5] = target: human BACE1 ECD (22-457) R189A, His8 (human, UniProt P56817 22-457)
Description: as §1, §2

[6] = target: T5, human BACE1 ECD (22-457) K285A, His8 (human, UniProt P56817 22-457)
T5 construct: also called K285A (224)
Description: as §1, §2

[7] = target: T6, human BACE1 ECD (22-457) D289A, His8 (human, UniProt P56817 22-457)
T6 construct: also called D289A (228)
Description: as §1, §2

[8] = target: T7, human BACE1 ECD (22-457) G291A, His8 (human, UniProt P56817 22-457)
T7 construct: also called G291A (230)
Description: as §1, §2

[9] = target: T8, human BACE1 ECD (22-457) T293A, His8 (human, UniProt P56817 22-457)
T8 construct: also called T293A (232)
Description: as §1, §2

[10] = target: T9, human BACE1 ECD (22-457) N294A, His8 (human, UniProt P56817 22-457)
T9 construct: also called N294A (233)
Description: as §1, §2

[11] = target: T10, human BACE1 ECD (22-457) R296A, His8 (human, UniProt P56817 22-457)
T10 construct: also called R296A (235)
Description: as §1, §2

[12] = target: T11, human BACE1 ECD (22-457) K382A, His8 (human, UniProt P56817 22-457)
T11 construct: also called K382A (321)
Description: as §1, §2

[13] = target: T12, human BACE1 ECD (22-457) T390A, His8 (human, UniProt P56817 22-457)
T12 construct: also called T390A (329)
Description: as §1, §2

[14] = target: T13, human BACE1 ECD (22-457) G72A, His8 (human, UniProt P56817 22-457)
T13 construct: also called G72A (11)
Description: as §1, §2

[15] = target: T14, human BACE1 ECD (22-457) L91A, His8 (human, UniProt P56817 22-457)
T14 construct: also called L91A (30)
Description: as §1, §2

[16] = target: T15, human BACE1 ECD (22-457) D93A, His8 (human, UniProt P56817 22-457)
T15 construct: also called D93A (32)
Description: as §1, §2

[17] = target: T16, human BACE1 ECD (22-457) S96A, His8 (human, UniProt P56817 22-457)
T16 construct: also called S96A (35)
Description: as §1, §2

[18] = target: T17, human BACE1 ECD (22-457) Y132A, His8 (human, UniProt P56817 22-457)
T17 construct: also called Y132A (71)
Description: as §1, §2

T9 sequence (P56817 other isoform, or with tags, fused parts or gaps N294A N294A): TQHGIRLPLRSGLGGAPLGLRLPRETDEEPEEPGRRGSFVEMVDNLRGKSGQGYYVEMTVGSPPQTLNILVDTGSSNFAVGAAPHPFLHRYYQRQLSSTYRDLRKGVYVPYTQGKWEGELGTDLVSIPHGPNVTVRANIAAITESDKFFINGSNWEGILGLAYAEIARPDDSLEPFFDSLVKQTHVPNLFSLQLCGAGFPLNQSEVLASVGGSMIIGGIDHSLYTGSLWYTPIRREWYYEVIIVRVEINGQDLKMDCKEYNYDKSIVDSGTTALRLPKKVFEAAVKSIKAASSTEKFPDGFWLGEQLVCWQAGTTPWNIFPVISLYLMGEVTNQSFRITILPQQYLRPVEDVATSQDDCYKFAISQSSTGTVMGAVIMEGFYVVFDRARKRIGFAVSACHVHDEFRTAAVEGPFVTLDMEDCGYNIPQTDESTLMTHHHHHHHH
T10 sequence (P56817 other isoform, or with tags, fused parts or gaps R296A R296A): as the sequence (P56817 other isoform, or with tags, fused parts or gaps N294A N294A) above, with A273N, R275A counted along it
T1 sequence (P56817 other isoform, or with tags, fused parts or gaps Q134A Q134A): as the sequence (P56817 other isoform, or with tags, fused parts or gaps N294A N294A) above, with Q113A, A273N counted along it
T11 sequence (P56817 other isoform, or with tags, fused parts or gaps K382A K382A): as the sequence (P56817 other isoform, or with tags, fused parts or gaps N294A N294A) above, with A273N, K361A counted along it
T13 sequence (P56817 other isoform, or with tags, fused parts or gaps G72A G72A): as the sequence (P56817 other isoform, or with tags, fused parts or gaps N294A N294A) above, with G51A, A273N counted along it
T14 sequence (P56817 other isoform, or with tags, fused parts or gaps L91A L91A): as the sequence (P56817 other isoform, or with tags, fused parts or gaps N294A N294A) above, with L70A, A273N counted along it
T12 sequence (P56817 other isoform, or with tags, fused parts or gaps T390A T390A): as the sequence (P56817 other isoform, or with tags, fused parts or gaps N294A N294A) above, with A273N, T369A counted along it
human BACE1 ECD (22-457) R189A, His8, sequence (P56817 other isoform, or with tags, fused parts or gaps R189A R189A): as the sequence (P56817 other isoform, or with tags, fused parts or gaps N294A N294A) above, with R168A, A273N counted along it
T3 sequence (P56817 other isoform, or with tags, fused parts or gaps F169A F169A): as the sequence (P56817 other isoform, or with tags, fused parts or gaps N294A N294A) above, with F148A, A273N counted along it
T17 sequence (P56817 other isoform, or with tags, fused parts or gaps Y132A Y132A): as the sequence (P56817 other isoform, or with tags, fused parts or gaps N294A N294A) above, with Y111A, A273N counted along it
T16 sequence (P56817 other isoform, or with tags, fused parts or gaps S96A S96A): as the sequence (P56817 other isoform, or with tags, fused parts or gaps N294A N294A) above, with S75A, A273N counted along it
T15 sequence (P56817 other isoform, or with tags, fused parts or gaps D93A D93A): as the sequence (P56817 other isoform, or with tags, fused parts or gaps N294A N294A) above, with D72A, A273N counted along it
T2 sequence (P56817 other isoform, or with tags, fused parts or gaps K168A K168A): as the sequence (P56817 other isoform, or with tags, fused parts or gaps N294A N294A) above, with K147A, A273N counted along it
T5 sequence (P56817 other isoform, or with tags, fused parts or gaps K285A K285A): as the sequence (P56817 other isoform, or with tags, fused parts or gaps N294A N294A) above, with K264A, A273N counted along it
T7 sequence (P56817 other isoform, or with tags, fused parts or gaps G291A G291A): as the sequence (P56817 other isoform, or with tags, fused parts or gaps N294A N294A) above, with G270A, A273N counted along it
T8 sequence (P56817 other isoform, or with tags, fused parts or gaps T293A T293A): as the sequence (P56817 other isoform, or with tags, fused parts or gaps N294A N294A) above, with T272A, A273N counted along it
T4 sequence (P56817 other isoform, or with tags, fused parts or gaps I179A I179A): as the sequence (P56817 other isoform, or with tags, fused parts or gaps N294A N294A) above, with I158A, A273N counted along it
T6 sequence (P56817 other isoform, or with tags, fused parts or gaps D289A D289A): as the sequence (P56817 other isoform, or with tags, fused parts or gaps N294A N294A) above, with D268A, A273N counted along it

B1: biotinylated BACE020 (Ac-NEESMYCRLLGIGCG-(PEG)3-biotin) (peptide)
peptide: Ac-NEESMYCRLLGIGCG-{NH(CH2)3(OCH2CH2)2O(CH2)3NH-biotin}
modifications: disulfide 7-14
notes: also called C-terminal biotin tagged BACE020 peptide
[1]
  Fold Decrease in Binding EC50 (Mut)/EC50 (WT): 1990 fold
[2]
  Fold Decrease in Binding EC50 (Mut)/EC50 (WT): 1 fold
[3]
  Fold Decrease in Binding EC50 (Mut)/EC50 (WT): 1.9 fold
[4]
  Fold Decrease in Binding EC50 (Mut)/EC50 (WT): 2.6 fold
[5]
  Fold Decrease in Binding EC50 (Mut)/EC50 (WT): 2.7 fold
[6]
  Fold Decrease in Binding EC50 (Mut)/EC50 (WT): 4 fold
[7]
  Fold Decrease in Binding EC50 (Mut)/EC50 (WT): 2210 fold
[8]
  Fold Decrease in Binding EC50 (Mut)/EC50 (WT): 0.8 fold
[9]
  Fold Decrease in Binding EC50 (Mut)/EC50 (WT): 349 fold
[10]
  Fold Decrease in Binding EC50 (Mut)/EC50 (WT): 2.4 fold
[11]
  Fold Decrease in Binding EC50 (Mut)/EC50 (WT): 70.9 fold
[12]
  Fold Decrease in Binding EC50 (Mut)/EC50 (WT): 4.5 fold
[13]
  Fold Decrease in Binding EC50 (Mut)/EC50 (WT): 0.9 fold
[14]
  Fold Decrease in Binding EC50 (Mut)/EC50 (WT): 6.5 fold
[15]
  Fold Decrease in Binding EC50 (Mut)/EC50 (WT): 1 fold
[16]
  Fold Decrease in Binding EC50 (Mut)/EC50 (WT): 568 fold
[17]
  Fold Decrease in Binding EC50 (Mut)/EC50 (WT): 1 fold
[18]
  Fold Decrease in Binding EC50 (Mut)/EC50 (WT): 72.2 fold
